Assay results from publication PMC12853789, “Identification of receptor-binding domains of Bacteroidales antibacterial pore-forming toxins” (The Journal of Biological Chemistry, 2025).

Biological target: T1, BSAP-1 (BF638R_1646), recombinant soluble protein with N-terminal His tag (Bacteroides fragilis 638R, UniProt E1WTV1 17-372)
T1 construct: BSAP-1 of Bacteroides fragilis 638R (BF638R_1646, GenBank CBW22174.1), without the N-terminal signal peptide and the lipidated cysteine (C16); the protein ends at P372; a Ser-Ser-Gly linker follows the His tag; Limits follow from 'excluding the signal peptide and conserved cysteine' (C16) and the CTD's end at P372; no cleavage of the tag is told; also called full-length BSAP-1; purified BSAP-1; …
T1 sequence: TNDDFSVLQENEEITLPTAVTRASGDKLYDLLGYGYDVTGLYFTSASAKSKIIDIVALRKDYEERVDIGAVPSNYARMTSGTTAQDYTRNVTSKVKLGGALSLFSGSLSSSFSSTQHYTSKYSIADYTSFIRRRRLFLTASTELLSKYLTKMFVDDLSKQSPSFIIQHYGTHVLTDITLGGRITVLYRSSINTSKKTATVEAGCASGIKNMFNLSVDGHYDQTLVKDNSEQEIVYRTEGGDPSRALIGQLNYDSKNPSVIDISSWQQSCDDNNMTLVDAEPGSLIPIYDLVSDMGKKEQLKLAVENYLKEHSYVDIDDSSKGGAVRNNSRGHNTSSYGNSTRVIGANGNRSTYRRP
Assay: cryo-EM structure; peak 1 fractions of the BSAP-1 pull-down, in DDM, graphene oxide coated grids; map of the complex ~7 Å, local refinement on B1R^S 4.45 Å
Conditions: one partner purified

B1: B1R^S, BSAP-1 receptor (BF9343_1563), untagged, overexpressed in Bacteroides thetaiotaomicron (receptor, Bacteroides fragilis NCTC 9343, UniProt Q5LEV6 1-556, looked up)
chain: QTVYDAAKITGKDLNGTARFVGMGGAMGALGGDISTIGTNPAGIGIYRSNDFMTSFGFSSYGTESKYLGDKFKSDKIQGSFDNLGFVFASKIGNETSLRYVNFGFNYHKAKSFYKNMNMKGGLGNSSQTYQMAQQASGITKWGDYPYDDPEIGWLSILGYDGWLISDITTDKMNAAGKPNSPYVDKDGNQRYDANGKPLYTTPGNYYGMYDDGVANFHSQERGGIDQYDFNVAFNFNDRFYLGLTLGAYAVDYSKYTYYSEAYTGANAPQNYNLRSWNKVRGSGFDLKLGTIIRPFENSPFRIGLAIHTPTFYNLDYKTSARVESDVLNVETGKIDQWSVDTRDKLPGNGDMVREFRLQTPWTYNVSLGYTIGTSLALGAEYEYQDYSTMKFRGPTGSSSEFTFENSTRPMMKGVNTLRLGLEYKVIPQFALRAGYNYTSAIFHGDAFKDLPYYSIQTDTDWANTKALSNYTLGIGYRGSVFYADLAYKFSTYNEDFYPFVNKYEENNATTVLTPETTKVTNTRSQVLFTLGLRF
notes: B1R^S, outer membrane beta-barrel protein of Bacteroides fragilis NCTC 9343 (BF9343_1563, GenBank CAH07344.1); theoretical molecular weight 62 kDa; untagged; in the pull-down it stood in a membrane fraction, in microscopy on cells
With B1 the “stoichiometry N” value was 1.
